In the Human Domainome abundance scans (Beltran et al. 2025):

B1: Gamma-crystallin S, residues 96 to 176; numbered along this chain, P22914 (parent)
chain: IQIFEKGDFSGQMYETTEDCPSIMEQFHMREIHSCKVLEGVWIFYELPNYRGRQYLLDKKEYRKPIDWGAASPAVQSFRRI

Variants of: B1
Experiment: abundance fitness (aPCA) (normalised: wild type 0, dead -1); higher = more abundant; growth selection in yeast, the domain comes from the species named
Settings: Homo sapiens

Abundance fitness of substitutions, site by site:
C35: I -0.039 | A -0.027 | S 0.052 | G 0.048 | H -0.769 | K -1.01 | L 0.102 | F 0.133 | Y -0.217 | E -0.952 | R -0.987 | V 0.021 | T 0.074 | P -0.788 | Q -0.803 | W -0.006 | N -0.529 | M 0.111
G40: R -0.322 | Y -0.137 | H -0.252 | F -0.261 | C -0.158 | S -0.051 | D -0.012 | I -0.759 | A -0.051 | T -0.251 | V -1.06 | N -0.14 | L -0.739 | P -0.028 | K -0.337 | M -0.464 | W -0.312
K36: F 0.1 | C -0.078 | S 0.015 | Y 0.068 | M 0.024 | N -0.037 | G -0.171 | H -0.013 | T -0.019 | I -0.045 | A 0.017 | R 0.022 | P -1.19 | W 0.15 | E -0.021 | D -0.019 | Q -0.002
E31: T 0.106 | A 0.066 | M -0.039 | P -0.056 | S -0.034 | C -0.13 | V 0.072 | G 0.015 | Y 0.116 | L 0.056 | D 0.138 | Q 0.02 | I 0.05 | K -0.034 | H 0.069 | W 0.084 | N -0.008 | F 0.041
H28: K 0.07 | W 0.05 | R -0.047 | C 0.031 | D 0.027 | N 0.009 | L 0.035 | M -0.05 | Q 0.037 | I 0.079 | T 0.036 | F 0.332 | G 0.048 | S 0.042 | P 0.137 | V -0.011 | E 0.006 | Y 0.035
V37: T 0.004 | C 0.075 | Y -0.769 | A 0.081 | L 0.023 | Q -0.105 | M 0.049 | R 0.042 | D -0.166 | G -0.075 | I -0.142 | N 0.087 | K 0.027
V41: P -0.051 | T 0.096 | W -0.132 | L 0.023 | F -0.001 | R 0.047 | C -0.112 | Y -0.162 | I -0.101 | D -0.01 | A 0.063 | S -0.026 | G 0.105 | Q 0.055 | K 0.052 | M 0.041
F44: I -0.215 | N -0.868 | V 0.009 | Y -0.104 | T -0.195 | R -1.02 | A -0.007 | G 0.015 | L 0.005 | W -0.141 | H -0.441 | S -0.272 | M 0.064 | Q -0.602 | K -0.929 | P -1.11 | C 0.035 | E -0.951
E39: D -0.028 | N 0.079 | P -0.227 | W -0.06 | S 0.035 | K 0 | Q -0.03 | Y -0.045 | C -0.039 | M -0.014 | H -0.1 | A 0.059 | V 0.061 | T -0.012 | F -0.025 | R 0.054
I43: Q 0.056 | F 0.008 | V -0.013 | N 0.007 | G 0.028 | S 0.015 | K -0.123 | Y 0.047 | E 0.117 | H -0.162 | P -1.1 | W -0.032 | R 0.016 | M 0.074
I32: V -0.029 | W -0.193 | Q -0.809 | C 0.015 | E -0.348 | T -0.027 | M -0.001 | R -1.01 | L 0.025 | P 0.051 | F 0.09 | N -0.223 | K -0.755 | S -0.087
S34: L -0.967 | K -0.954 | G 0.06 | A -0.004 | P -1.08 | E -0.772 | N -0.434 | M -0.779 | H -0.641 | Q -0.485 | D -0.898 | C -0.047 | T -0.601 | R -0.623 | I -0.844 | F -1.06 | Y -0.646
M29: I -0.015 | E 0.109 | F 0.036 | P 0.058 | D 0.034 | W 0.027 | C 0.132 | A 0.048 | S 0.063 | T 0.109 | K -0.006 | Y 0.025 | V 0.034 | H 0.124 | L -0.084 | N 0.226 | Q 0.048 | G 0.053
L47: E -0.004 | K 0 | Q -0.113 | G -0.051 | F 0.046 | M 0.07 | D -0.093 | N -0.203 | S -0.056 | I -0.436 | A -0.047 | H 0.065 | P -0.909 | R 0.011 | C -0.022
E46: P -0.16 | H -0.047 | N -0.275 | L -0.279 | R -0.137 | G -0.094 | M -0.21 | W -0.875 | A -0.016 | S -0.101 | I -0.777 | T -0.13 | V -0.386 | Q 0.034 | F -0.584 | D -0.476 | C -0.008
H33: I -0.002 | W 0.062 | L -0.021 | Q -0.023 | Y 0.02 | K -0.12 | P 0.057 | G 0.012 | D 0.077 | R -0.047 | E 0.054 | F 0.093 | S 0.03 | V -0.013 | C 0.035 | T 0.06 | A -0.047 | N -0.01 | M 0.027
W42: K -0.787 | Q -0.906 | F -0.051 | S -0.901 | D -1.06 | C -0.156 | G -1.02 | N -0.445 | L -0.241 | Y 0.046 | H -0.461 | E -0.363 | R -0.986 | T -0.709 | V -0.042 | A -0.157 | P -1.04 | M -0.231
R30: P 0 | M 0.047 | G 0 | F 0.005 | A 0.061 | E 0.066 | D 0.009 | W 0.105 | C 0.009 | I -0.099 | H 0.026 | N 0.044 | L -0.031 | Y -0.02 | Q 0.11 | S -0.07 | V -0.144 | K 0.055 | T 0.011
Y45: A -0.397 | L -0.651 | N -0.123 | E -0.794 | V -1.07 | I -1.1 | T -0.304 | W -0.065 | Q -0.888 | F -0.04 | R -0.841 | D -1.03 | K -0.712 | C -0.273 | G -0.669 | H -0.123
L38: G 0.02 | Y -0.079 | P 0.1 | C -0.067 | A 0.032 | E -0.004 | M -0.046 | Q -0.072 | F -0.017 | K -0.016 | T 0.012 | H 0.043 | W -0.024 | I -0.15 | S -0.014 | R 0.004
